For eleven sequences, protein production results are on record in a protein production outcome set (Wang et al. 2014).

The nature of this data set: label from the status in PepcDB records.
On to “MRELFKSVRGFFRLLRMIFPKRLKNAFLGLSELFYYASSLSFYTILSLSPILLFVFSLFVSHYLQAHSGEMEALIFPNAPKLIGAIKDFLENFKKTDMTLGTLEEVSIVVALVLFCENYRSIASKIFQAKPRDYAHFKGKEIFLFWGFGTTLVFLFALPLVVFFDIKIQVFFEDKNSNLLHVLRWIGTYAFFLILFTIPTNKVFKHYFWVFLWVFFTSVSWHVLKWAFTYYVLYNRTYHELYGSVSILWFLMSWVYVSWLVILIGMYGCKVCDAFDPKEVFKKFLGFFKKET”, for which the protein production entry is recorded as “failed”.

For “MKKAKLIFKDNTPFSLDFDDFYFNFKDGLNESKFVYTHSFEWKNQENFIIAESGFGIGLNFFLTLKRFLETTPSKRPKKLFYISVEAFYIEKEQLREIYQKLEFYEEFKELLEQFLKFYPKAKEGIYRFYFEDCFLDLVFEDIAVLKELDFKADVWYLDGFSPNKNSQMFDENLIFEVARLSKKNTQICTFSSASFLQKNLKKYGFRVEKTKGFRKREMIKAYLENELEFKDKEAYFSRTFSSLKNKKVAIIGAGISSAVLAYELSLRGFEIDIFEKHLELGKGASGNESGILSSLILKPKVNLGEFSELSFIEASRFYRQILDLEFKGVVEFAHNDLMQERFDTQRENVLFKISKNQAFLEEGGVIFPKKLVKNLFEKSKACIYFNHEFQAYKFENGCFSLKFKNDVVKSDYAVLIYAMGADAKDFVFYDEMKLSKVRGQVTHLKPFLDTPFPLSSKAYICPVKDDLQVIGASYDRLNASLESKEEDDKQNIENIADFMDKNTKLEIIGSKVGFRSYSSDRFMIVGNAYDEAFYKEEYKALLWTKNKEQKPAKMSCNLYFNFAHGSRGFSTSVLAARYLCALINNEPLCLEKKYIHAIHPARFLIRKLKKGL”, the protein production entry is recorded as “failed”.

On to “MLINSEIISLSGSMYEDRSYQNEAIDFIASKLANYPGVALEAPTGSGKTMMALLGSLKYAYNGHLKILYLVRTNSQEEQVIRELRTISKNRKIRALPMQGRINLCILYKTADDLKEATAESLSKFCNSRKRQVMEGHQEACPYYTIKVRSKETKDFLFENLPTAEEFYEYAFTNNLCPYESIKASLSDADIVVAPYMYFLNKTVADRFLSHWGVSREQLIIVLDEAHNLPDIGRSLGSFRISIESLNRSEKEAQSFGDPELDRGVHVTDFIEMIRSTLERTIKERVKEDDVRIRFQEFKEYLMIMNKKSEKSIRDLNNYLYLFGEYVENEKEKAGKVPVSYCSSLAQRLEAMMDEDDAMYAAILSKSESGYIQASCLDPSSILSSLKESKTIHMSGTLEPFEFYSDVTGFDIPFRRIENVFPIENRFVSYYEGVSTKYDTLDENEIRKLASIIENIVNGVKRNTIVYFPSYAVMDKVIGSGLDFDFLQEKKNLDQTEFYDVVKKFRNGGKPLLAVSGGRLSEGMNFPGRELELILIAGIPFPRPDATNRALYDYYEMKYKKGWEYAVLAPAIIKIRQEIGRLIRGKDDHGACVILDKRAKQFRRFIPDLVKTDDPVNDINTFFSNFK”, for which the protein production entry is reported as “failed”.

Regarding “MNLLVIGGHERMEKDYMVMAKKKGYKTKVYTTMSSKLNNSIGRPDAVVILTSTVSHKMSRTVESQAKKQDILIVRHKNSSKVAFNECLDMVDECLGNCSKCKLKDKQKQKNILEHHHHHH”, the protein production entry was “failed”.

Regarding “VKNGNDTRMTLLNNWESTYFDFDENKLIGLMDEATKLGVDMFLLDDGWFANKYPRSSDHQGLGDWEETADKLPNGVGRLVEEAQKKGIKFGIWIEPEMVNPKSELYEKHKDWVIHLPNRDEYYFRNQMVLDLSNPKVQDHVFGVVDNLMTKYPGIAFFKWDCNSPITNIYSVYLKDKQSHLYVDYVRGLYKVLDRIKAKYPNLPMMLCAGGGGRSDYEALKYFTEFWPSDNTDPIERLFIQWGYSQIFPSKTLCAHVTTWNRGTSIKFRTDVAMMCKLGFDIKLEDMNQNEHLYCDQAVKNYNRLKPVILEG”, the protein production result is recorded as “failed”.

Consider “MKLPPGFSISVWANVPDARTMTLGDKGTVFVGSKSAGNVYAITENAGKRQIRIIASKLKMPNGVAFHDGALYVSSVNRILRFDNIENTLDQPLPPRIITADYPKETYHGWRFIAFGPDGWLYVPVGSSCNVCETDLEHYALISRIRPDGSNYEVFAKGVRNTEGFDWHPVTKALWFTDISREWMGDNLPPDELNHASNQGLDFGFPYCHGKEVSDPKLGAKRDCNKFIPPAVELDPHVAPMGMRFYTGTMFPAEYHNGIFIAEHGSWNRSTKIGYRLEWVQLEVNEVARKEIFAEGWLQENEAWGRPVDVLVMPDGALLVSDDMAGVVYRISYDQPLEHHHHHH”, for which the protein production result is reported as “not failed”.

Take “MKKKLLNYLILLACLATVSVSCSGSAQAAVLGDDYPFSWKYGGFGVDPWTMYWRQCTSFAAYRLSNTNGFTLPIGYGNAITWGNIARANGHRVDMNPAVGSIAWFSAGVNGAGHMGHVAWVAEVHGDQVTIEEYNYDAGQGPEKYHKRSFHKSQVSGYIHFKDLESGTQNGNPTNSSIKVGDSVRFTGTFRVTSVSGNTITSQDLAGGTPTKHNIVDPSPVLEVDAQGNPTSDQYLNPGETFTIPGNFKVLAIDPPSDGILVQIGNLKTWVTQSVLEKILEHHHHHH”: the protein production result is “not failed”.

Take “MHVVQGAKTMWNKIQVVSHGRGGLRSQCCETTMIGHPTPTPAQDSETQPSPQEHIPEKKPLPKEIGGRDGPEPTRYGDWEKNGRCIDFLEHHHHHH”: the protein production result was “failed”.

As for “MKTARPGKLKRQEEQASFISWRFALLCGCILLALVGLIMRTAYLQVINPDKLVREGDMRSLRVQEVPTARGMISDRSGRPLAVSVPVNAVWADPKELIEQGGISLDTRWKALSDALEIPLDQLATRINANPKGRFVYLARQVNPAIGDYIRKLKLPGIHLRQESRRYYPAGQVMAHIIGVTNIDGQGIEGVEKSFDRWLTGQPGERTVRKDHYGRVIEDISSVDSQAAHNLVLSVDERLQALVYRELNNAVAFNKAESGTAVLVDVNTGEVLAMANSPSYNPNNLTGTPKDAMRNRAITDIFEPGSTVKPMVVMTALQHGVVKENSVLNTLPYFVNGHQIKDVARYAELSVTGILQKSSNVGVSKLALAMPSSALVDTYSRFGFGKATNLGLVGESSGLYPKKQRWSDIERATFSFGYGLMVTPLQLARVYATIGSMGVYRPLSITRVDPPVAGERIFPEPLVRTVVHMMESVALPGGGGTKAAIKGYRIAIKTGTAKKVGPDGKYMDRYLAYTAGVAPASNPRFALVVVINDPQAGKYYGGAVSAPVFGAIMGGVLRTMNIEPDALPTGDKSELVINTKEGSGGRS”, the protein production entry was “not failed”.

Consider “MRTVDVFHPQAASNSAAVHASPQTTVAFSPDGTHYASAGYDGRVVLWDRSGTSPRWVGRHSRLVNGVRFSPSGRLLASGSADKTCRIWEVATGRQVQLLARQPDDLNALAWLDENRLVTVSQDGTGRIWDIRTGVLQEGVIFHADHCMSVDAAPTGVLASCGEDATIRLWDTDGSLLRDLPQAGHAEMCRWSPDGTLLAASCDDGFVHIVRTDGELVTKVGPYTAAVKSVAWSQDGSRIVIGAYDSTIALWDIADCRPLVRWYGAHLWPRAVDWSADGRTVVAGTFSARPAVIDVPEIPADALPDEVREITLEASVPTHGVNHVSAAGEVLAAGGDNGTIRVWSHRGATATEVPVGNGSLVNTVAVSAELPGLVAYGSFSGRVGVADAVTGRDVAAVQREHPVNRAAWSPDGRRLAVADYEGGLDLYAWTGRELVPGVHYAGHDGAIKDVSWVDADRLVTYSTDRRAHLITTEGTLIRSFGGHGELINGGSVTTVAGRALLATVSRDRTSRIYDLETGELLQVLVGHDESAKCAAWHPGGEPLLVTGSYDFTGRLWVLDPKTLAPLHQHVLEGHGSAVSAVCWLGDDAVTASWDSKVFTWTPDADPARPPAAAEPATDWRVREGSR”, for which the protein production entry was “failed”.

“MSPTHKPMPEPTEVFTLPRWKITRWLTDTDRDVPTDIKRALIGSLFGTLSIFVGGVVNTLLVAALIAWHIQRPAFFAWFGLECLICIARISILVSARRRARAARSTHTDLHLALSLAWAFSVGLGTYLSITSGNWLAAALACLSSAAMIGGICFRNFGAPRMSGLMILLALGPCCLGAIVAREPLFLLTLIQLPVYVASMTSASFRMHAMLVATMQSERENAHRARHDSMTGLLNRGSLLAEIRATMECNAISPLRSALLYLDLDGFKRINDVHGHGCGDELLQQVADRMRATVPEGTHVSRIGGDEFVILLNLHESDDVQVLAQRLLRDIAVPYLLANGETVAIGVSIGITHISPNGQSADAVLNVADRALYVAKARGKGCFHFSEAVQAL”: the protein production entry was “failed”.
